Where a chain is given by its changes, count along the chain named. Numbers in names are those of the source. Values belong to the binder of their own block, whether it stands above or below them.
Assays:
[1] = molecular target: binding partner (antigen) of C5A (XPA23); test: Biacore, K-off, fold vs original
[2] = molecular target: binding partner of C5A (XPA23); test: Biacore
[3] = molecular target: binding partner of C5A (XPA23); test: Biacore, mutant vs original C5A (XPA23)

B3: C5A (XPA23) light chain variable region S53P (antibody, V domains shown)
VH: EVQLLESGGGLVQPGGSLRLSCAASGFTFSKYFMFWVRQAPGKGLEWVSVISPSGGMTRYADSVKGRFTISRDNSKNTLYLQMNSLRAEDTAVYYCARVGYGGNSDYWGQGTLVTVSS
VL: DIQMTQSPSSVSASVGDRLTIICRASQDINRWLAWYQQTPGNAPKLLIHSATPLQSGVPSRFSGSGSGTDFTLTINSLQPEDFATYYCQQADSFPLTFGGGTKVEIK
fold difference in affinity in comparison to original [3]: 4.92 fold

B4: C5A (XPA23) VH Y107P (antibody, V domains shown)
VH: B3 VH with Y107P
VL: B3 VL with P53S
fold difference in affinity vs original [1]: 0.04 fold
fold difference in affinity vs original [2]: 0.04 fold

B6: C5A (XPA23) VH Y107G (antibody, V domains shown)
VH: B3 VH with Y107G
VL: B3 VL with P53S
fold difference in affinity vs original [1]: 0.1 fold
fold difference in affinity vs original [2]: 0.1 fold

B7: C5A (XPA23) VH Y107V (antibody, V domains shown)
VH: B3 VH with Y107V
VL: B3 VL with P53S
fold difference in affinity vs original [1]: 0.93 fold
fold difference in affinity vs original [2]: 0.93 fold

B8: C5A (XPA23) light chain variable region D92I (antibody, V domains shown)
VH: B3 VH
VL: B3 VL with P53S, D92I
fold difference in affinity in comparison to original [3]: 0.33 fold

B11: C5A (XPA23) light chain variable region D92G (antibody, V domains shown)
VH: B3 VH
VL: B3 VL with P53S, D92G
fold difference in affinity in comparison to original [3]: 0.26 fold

B12: C5A (XPA23) VH Y107I (antibody, V domains shown)
VH: B3 VH with Y107I
VL: B3 VL with P53S
fold difference in affinity vs original [1]: 0.96 fold
fold difference in affinity vs original [2]: 0.96 fold

B13: C5A (XPA23) VH Y107F (antibody, V domains shown)
VH: B3 VH with Y107F
VL: B3 VL with P53S
fold difference in affinity vs original [1]: 0.9 fold
fold affinity vs original [2]: 0.9 fold

B15: C5A (XPA23) light chain variable region D92T (antibody, V domains shown)
VH: B3 VH
VL: B3 VL with P53S, D92T
fold difference in affinity in comparison to original [3]: 0.34 fold

B17: C5A (XPA23) light chain variable region S53A (antibody, V domains shown)
VH: B3 VH
VL: B3 VL with P53A
fold difference in affinity in comparison to original [3]: 1.07 fold

B18: C5A (XPA23) light chain variable region S53T (antibody, V domains shown)
VH: B3 VH
VL: B3 VL with P53T
fold difference in affinity in comparison to original [3]: 0.95 fold

B19: C5A (XPA23) VH Y107L (antibody, V domains shown)
VH: B3 VH with Y107L
VL: B3 VL with P53S
fold difference in affinity vs original [1]: 0.86 fold
fold difference in affinity vs original [2]: 0.86 fold

B20: C5A (XPA23) light chain variable region S93V (antibody, V domains shown)
VH: B3 VH
VL: B3 VL with P53S, S93V
fold difference in affinity in comparison to original [3]: 3.81 fold

B22: C5A (XPA23) light chain variable region A91L (antibody, V domains shown)
VH: B3 VH
VL: B3 VL with P53S, A91L
fold difference in affinity in comparison to original [3]: 0.39 fold

B28: C5A (XPA23) light chain variable region S93I (antibody, V domains shown)
VH: B3 VH
VL: B3 VL with P53S, S93I
fold difference in affinity in comparison to original [3]: 1.35 fold

B29: C5A (XPA23) light chain variable region S53G (antibody, V domains shown)
VH: B3 VH
VL: B3 VL with P53G
fold difference in affinity in comparison to original [3]: 1.03 fold

B30: C5A (XPA23) VH Y107A (antibody, V domains shown)
VH: B3 VH with Y107A
VL: B3 VL with P53S
fold difference in affinity vs original [1]: 0.83 fold
fold difference in affinity vs original [2]: 0.83 fold

Results, then the binder that gave them:

fold difference in affinity vs original [1]: 1.41 fold
fold difference in affinity vs original [2]: 1.41 fold
B1: C5A (XPA23) VH S105P (antibody, V domains shown)
VH: B3 VH with S105P
VL: B3 VL with P53S

fold difference in affinity in comparison to original [3]: 1.42 fold
B2: C5A (XPA23) light chain variable region S53I (antibody, V domains shown)
VH: B3 VH
VL: B3 VL with P53I

fold difference in affinity in comparison to original [3]: 1.47 fold
B5: C5A (XPA23) light chain variable region S93T (antibody, V domains shown)
VH: B3 VH
VL: B3 VL with P53S, S93T

fold difference in affinity in comparison to original [3]: 0.67 fold
B9: C5A (XPA23) light chain variable region A91T (antibody, V domains shown)
VH: B3 VH
VL: B3 VL with P53S, A91T

fold difference in affinity in comparison to original [3]: 0.51 fold
B10: C5A (XPA23) light chain variable region A91V (antibody, V domains shown)
VH: B3 VH
VL: B3 VL with P53S, A91V

fold difference in affinity in comparison to original [3]: 0.99 fold
B14: C5A (XPA23) light chain variable region S53L (antibody, V domains shown)
VH: B3 VH
VL: B3 VL with P53L

fold difference in affinity in comparison to original [3]: 1.42 fold
B16: C5A (XPA23) light chain variable region S53V (antibody, V domains shown)
VH: B3 VH
VL: B3 VL with P53V

fold difference in affinity in comparison to original [3]: 1.16 fold
B21: C5A (XPA23) light chain variable region S93A (antibody, V domains shown)
VH: B3 VH
VL: B3 VL with P53S, S93A

fold difference in affinity vs original [1]: 0.89 fold
fold affinity vs original [2]: 0.89 fold
B23: C5A (XPA23) VH Y107W (antibody, V domains shown)
VH: B3 VH with Y107W
VL: B3 VL with P53S

fold difference in affinity in comparison to original [3]: 0.4 fold
B24: C5A (XPA23) light chain variable region D92A (antibody, V domains shown)
VH: B3 VH
VL: B3 VL with P53S, D92A

fold difference in affinity vs original [1]: 0.03 fold
fold difference in affinity vs original [2]: 0.03 fold
B25: C5A (XPA23) VH D106G (antibody, V domains shown)
VH: B3 VH with D106G
VL: B3 VL with P53S

fold difference in affinity in comparison to original [3]: 0.14 fold
B26: C5A (XPA23) light chain variable region D92L (antibody, V domains shown)
VH: B3 VH
VL: B3 VL with P53S, D92L

fold difference in affinity in comparison to original [3]: 1.08 fold
B27: C5A (XPA23) light chain variable region S93L (antibody, V domains shown)
VH: B3 VH
VL: B3 VL with P53S, S93L

From US20110118447A1
